Here are results for eight molecules from US20090148437A1.

Residue numbers refer to the chain shown, from its start. “And” between values parts separate entries of the source, which are not always exact repeats. Equal entries are not always repeated.

In one experiment the target is IL-1R1 (UniProt P14778). Kind of experiment: Receptor Binding Assay, inhibition of IL-1 binding to IL-R1 (column head says nM, cell says pM).
Experiment [1] concerns the target IL-R1-Fc (a fusion of IL-1RI and Fc) (UniProt P14778). Kind of experiment: phage-displayed dAb: trypsin 100 µg/ml overnight room temp, then biopanning on 1 nM IL-R1-Fc.
For experiment [2] the target is unchanged. Kind of experiment: phage-displayed dAb: trypsin 100 µg/ml overnight 37 C, then biopanning on 1 nM IL-R1-Fc.
Experiment [3] has the same target. Kind of experiment: phage-displayed dAb: no trypsin overnight 37 C, biopanning on 1 nM IL-R1-Fc.
Experiment [4] has the same target. Kind of experiment: phage-displayed dAb: no trypsin overnight room temp, biopanning on 1 nM IL-R1-Fc.
Experiment [5] shares this target. Kind of experiment: phage-displayed dAb: trypsin 10 µg/ml overnight 37 C, then biopanning on 1 nM IL-R1-Fc.
For experiment [6] the target is unchanged. Kind of experiment: phage-displayed dAb: trypsin 100 µg/ml 1 hr room temp, then biopanning on 1 nM IL-R1-Fc.
For experiment [7] the target is unchanged. Kind of experiment: phage-displayed dAb: no trypsin 1 hr room temp, biopanning on 1 nM IL-R1-Fc.
Experiment [8] shares this target. Kind of experiment: phage-displayed dAb: trypsin 10 µg/ml overnight room temp, then biopanning on 1 nM IL-R1-Fc.
The target is the same in experiment [9]. Kind of experiment: phage-displayed dAb: trypsin 10 µg/ml 1 hr room temp, then biopanning on 1 nM IL-R1-Fc.
The target in a further experiment is TNFR1 on MRC-5 cells (UniProt P19438). Kind of experiment: cell-based or functional assay.
Experiment [10] has as its target human VEGF (human vascular endothelial growth factor) (human) (UniProt P15692). Kind of experiment: receptor binding assay (inhibition of VEGF binding to VEGFR2).
The target is the same in experiment [11]. Kind of experiment: phage-displayed dAb, expt 1 (input 10^10): no trypsin (0 µg/ml) 1 hr room temp, capture on 50 nM biotinylated rhVEGF.
The target is the same in experiment [12]. Kind of experiment: phage-displayed dAb, expt 2 (input 10^9): trypsin 100 µg/ml 1 hr 37 C 250 rpm, then capture on biotinylated rhVEGF.
For experiment [13] the target is unchanged. Kind of experiment: phage-displayed dAb, expt 1 (input 10^10): trypsin 10 µg/ml 1 hr room temp, then capture on 50 nM biotinylated rhVEGF.
For experiment [14] the target is unchanged. Kind of experiment: monoclonal phage ELISA on biotinylated hVEGF (neutravidin plate) after 100 ug/ml trypsin 1 h 37 C.
For experiment [15] the target is unchanged. Kind of experiment: phage-displayed dAb, expt 1 (input 10^10): trypsin 100 µg/ml 1 hr room temp, then capture on 50 nM biotinylated rhVEGF + streptavidin beads.
The target is the same in experiment [16]. Kind of experiment: BIAcore kinetics.
The target is the same in experiment [17]. Kind of experiment: phage-displayed dAb, expt 2 (input 10^9): trypsin 100 µg/ml 2 hr 37 C 250 rpm, then capture on biotinylated rhVEGF.
The target is the same in experiment [18]. Kind of experiment: phage-displayed dAb, expt 2 (input 10^9): no trypsin 2 hr 37 C 250 rpm, capture on biotinylated rhVEGF.

IL-R1-Fc (a fusion of IL-1RI and Fc), sequence (P14778 18-336 limits assumed): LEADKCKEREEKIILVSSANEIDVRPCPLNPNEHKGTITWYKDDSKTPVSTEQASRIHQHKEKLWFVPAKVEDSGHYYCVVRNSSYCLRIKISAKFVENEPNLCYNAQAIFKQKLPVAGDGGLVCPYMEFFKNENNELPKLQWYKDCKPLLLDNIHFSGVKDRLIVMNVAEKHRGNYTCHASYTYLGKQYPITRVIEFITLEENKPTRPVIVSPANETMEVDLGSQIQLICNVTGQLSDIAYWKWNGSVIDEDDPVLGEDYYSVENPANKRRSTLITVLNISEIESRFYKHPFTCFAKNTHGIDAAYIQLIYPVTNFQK
IL-1R1, sequence (P14778 18-332 limits assumed): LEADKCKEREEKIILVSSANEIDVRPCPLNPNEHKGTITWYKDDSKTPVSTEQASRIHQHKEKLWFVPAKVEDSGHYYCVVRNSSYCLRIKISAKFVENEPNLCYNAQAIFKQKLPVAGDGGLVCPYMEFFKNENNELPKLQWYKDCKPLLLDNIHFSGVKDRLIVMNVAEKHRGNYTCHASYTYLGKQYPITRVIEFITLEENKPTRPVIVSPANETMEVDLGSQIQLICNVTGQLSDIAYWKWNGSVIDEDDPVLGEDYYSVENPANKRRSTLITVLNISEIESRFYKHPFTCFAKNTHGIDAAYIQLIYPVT
human VEGF (human vascular endothelial growth factor) (human), sequence (P15692 other isoform, or with tags, fused parts or gaps limits assumed): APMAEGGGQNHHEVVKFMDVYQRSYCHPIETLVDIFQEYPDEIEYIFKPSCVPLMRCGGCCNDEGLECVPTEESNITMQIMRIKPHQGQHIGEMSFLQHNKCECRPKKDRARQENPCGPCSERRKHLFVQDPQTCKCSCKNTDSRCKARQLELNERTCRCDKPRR
TNFR1 on MRC-5 cells, sequence (P19438 30-455 limits assumed): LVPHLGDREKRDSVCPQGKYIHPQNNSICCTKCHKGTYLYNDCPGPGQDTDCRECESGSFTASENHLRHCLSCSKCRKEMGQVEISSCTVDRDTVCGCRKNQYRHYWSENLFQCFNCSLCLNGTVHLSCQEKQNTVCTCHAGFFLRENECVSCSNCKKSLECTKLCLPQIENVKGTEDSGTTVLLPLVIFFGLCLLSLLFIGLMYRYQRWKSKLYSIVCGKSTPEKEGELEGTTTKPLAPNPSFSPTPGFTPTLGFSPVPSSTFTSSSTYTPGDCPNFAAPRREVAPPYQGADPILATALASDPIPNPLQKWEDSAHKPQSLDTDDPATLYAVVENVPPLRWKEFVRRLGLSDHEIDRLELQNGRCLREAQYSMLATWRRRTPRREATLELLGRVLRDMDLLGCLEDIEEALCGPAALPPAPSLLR

B1: DOM4-130-54 (protein, from a related filing)
VL: DIQMTQSPSSLSASVGDRVTITCRASQDIYLNLDWYQQKPGKAPKLLINFGSELQSGVPSRFSGSGYGTDFTLTISSLQPEDFATYYCQPSFYFPYTFGQGTKVEIKR
Take B1: in the experiment with IL-1R1, the IC50 is 0.28 nM. The output phage titre worked out at 2.16e+09 in experiment [1]; 2.04e+06 in experiment [2]; 7.2e+09 in [3]; 7.8e+09 in experiment [4]; 3.84e+08 in experiment [5]; 1.8e+10 in [6]. The output phage titre in experiment [7] stood at 6.6e+09; in experiment [8], 7.2e+09; in [9], 7.2e+09.

B2: DOM4-130-202 (protein, from a related filing)
VL: B1 VL with T22S, N49S, F83S, F94Y
The molecule B2 showed an IC50 in the experiment with IL-1R1 of 0.254 nM.

B3: DOM4-130-201 (protein, from a related filing)
VL: B1 VL with N49K, S77N, R108W
Turning to B3, in the experiment with IL-1R1, the IC50 came to 0.257 nM.

B4: DOM1h-131-511 (protein)
VH: EVQLLESGGGLVQPGGSLRLSCAASGFTFAHETMVWVRQAPGKGLEWVSHIPPVGQDPFYADSVKGRFTISRDNSKNTLYLQMNSLRAEDTAVYYCALLPKRGPWFDYWGQGTLVTVSS
Regarding B4, in the experiment with TNFR1 on MRC-5 cells, the ND50, MRC-5 cell-based assay (IL-8 release) was 1.98 nM and 1.71 nM and 1.46 nM; the ND50, MRC-5 cell-based assay (IL-8 release); sample DOM1h-131-511 (230307CE) came to 1.89 nM.

B5: DOM1h-131-204 (protein, from a related filing)
VH: B4 VH with L5S, V54D, K101N
For the molecule B5, the ND50, MRC-5 cell-based assay (IL-8 release); sample DOM1h-131-204 (230307CE) with TNFR1 on MRC-5 cells turned out to be 1.89 nM.

B6: DOM1h-131-203 (protein, from a related filing)
VH: B4 VH with L5W, V54D, F106I
As to B6, the ND50, MRC-5 cell-based assay (IL-8 release); sample DOM1h-131-203 (230307CE) in the experiment with TNFR1 on MRC-5 cells amounted to 2.28 nM.

B7: DOM15-10 (protein, from a related filing)
VL: DIQMTQSPSSLSASVGDRVTITCRASQWIGPELSWYQQKPGKAPKLLIYHTSILQSGVPSRFSGSGSGTDFTLTISSLQPEDFATYYCQQYMFQPRTFGQGTKVEIRR
In [10], B7 displayed a concentration for a half-maximal effect (EC50) of 10.2 nM. Moreover, the output phage titre stood at 7e+07 in experiment [11]; 100000 in [12]; 2.4e+08 in experiment [13]; 1.1e+07 in experiment [15]; 10000 in experiment [17]; 3e+08 in experiment [18]. The OD450 in experiment [14] is less than 0.404. This molecule also displayed a dissociation constant (Kd) in experiment [16] of 23.6 nM.

B8: DOM15-10-11 (protein, from a related filing)
VL: B7 VL with S34R, R96M, R108G
For B8, the concentration for a half-maximal effect (EC50) in experiment [10] came out at 3.58 nM. In experiment [16], this molecule showed a Kd of 14.6 nM.

In general, IC50 refers to the concentration at which inhibition is half-maximal. A lower IC50 goes with higher potency. As a reminder, the EC50 is the concentration at which the effect is half-maximal. Lower therefore signals greater potency. The term Kd denotes the constant that tells how readily two partners part at equilibrium. A high value points to a looser complex.
